What was measured:
[1] = tested on: recombinant BDNF and pTrkB; assay: Western blot detection of recombinant BDNF and pTrkB in brain; assay type: in vivo, SJL/elite mice; conditions: BDNF 5.71 nmol/kg i.v. with or without ADTC5 10 μmol/kg; 20 min; n=3
Method: Female SJL/elite mice, 5 weeks of age (Charles River) were initially intravenously injected via lateral tail vein with 5.71 nmol/kg BDNF (Peprotech, Rocky Hill, N.J.) with (n=3) or without (n=3) 10 μmol/kg ADTC5. BDNF was allowed to circulate for 20-30 min prior to euthanasia via CO2. Immediately following euthanasia, mice were transcardially perfused with protease inhibitor infused TRIS buffer (pH 7.4). The brains of the mice were extracted and placed in the perfusate buffer on ice. For Western blotting, 100-150 mg of brain tissue was sectioned from the most ventral-posterior portion of the brain and placed in 200-250 μL of solution mixture containing 66% tissue protein extraction reagent (TPER; Thermo Fisher, Waltham, […].) and 33% […] neural protein extraction reagent (NPER; Thermo Fisher) with protease and phosphatase inhibitors (Thermo Fisher). […] These bands were not densiometrically analyzed due to high background signal; however, they are shown for qualitative analysis.
To improve the level of detection of BDNF and pTrkB bands via Western blot, the above process was repeated with an increase in dosages of BDNF. […] These images were not quantified due to the variation in dosing regiments; however, they are provided for qualitative analysis of BDNF brain depositions.

APP/PS1 mice = assay: Novel object recognition (NOR) assessment; assay type: in vivo, transgenic APP/PS1 mice; conditions: all groups compared
Method: (§1) Animals: All animal studies were carried out under the approved animal protocol (AUS-74-11) granted by Institutional Animal Care and Use Committee (IACUC) at The University of Kansas. Animal Care Unit (ACU) personnel and veterinarians were involved in the care of the animals used in this study. Female transgenic APP/PS1 (MMRRC stock #34832-Jax) were obtained from Jackson Laboratory (Bar Harbor, Me.) and housed until at least 6 months of age. Mice received intravenous (i.v.) injections of either BDNF (5.7 nmol/kg)+ADTC5 (10 μmol/kg; n=7), BDNF alone (5.7 nmol/kg; n=6), or vehicle (n=6) every 4 days, for a total of 8 injections. At the end of the study, the mice were euthanized via CO2 inhalation and perfused with PBS immediately followed by 4% formalin fixative solution. The brains were extracted and post-fixed overnight in the perfusion-fixation solution then transferred to 70% ethanol PBS solution for paraffin embedding.
Novel object recognition assessment: Twenty-four hours following the Y-maze assessment, the mice were subjected to Novel Object Recognition (NOR) assessment. […] The mice were allowed to explore the objects for 10 min and the total amount of time each mouse spent interacting with each object was measured. […]

amyloid beta plaques = assay: Amyloid beta plaque load in hippocampus, Congo red staining; assay type: in vivo, transgenic APP/PS1 mice; conditions: APP/PS1 mice; 8 injections; all three groups compared; n=5
Method: as §1
Coronal brain sections (10 μm thickness) were generated and mounted onto gelatin-coated slides (Superfrost Plus, Thermo Fisher Scientific, Waltham, Mass.). For both Aβ histology and NG2 receptor immunohistochemistry, sections were deparaffinized using xylene and serially hydrated from 95% ethanol to distilled water. […] Aβ plaque levels were quantified by counting the number of plaques from the hippocampus at 10× magnification from 5 random sections per group (n=5).

B1: BDNF: recombinant brain-derived neurotrophic factor (13 kDa monomer), Peprotech (protein, UniProt P23560 19-247, looked up)
Neurotrophic factor BDNF …: APMKEANIRGQGGLAYPGVRTHGTLESVNGPKAGSRGLTSLADTFEHVIEELLDEDQKVRPNEENNKDADLYTSRVMLSSQVPLEPPLLFLLEEYKNYLDAANMSMRVRRHSDPARRGELSVCDSISEWVTAADKKTAVDMSGGTVTVLEKVPVSKGQLKQYFYETKCNPMGYTKEGCRGIDKRHWNSQCRTTQSYVRALTMDSKKRIGWRFIRIDTSCVCTLTIKRGR
detection of BDNF bands in the brain [1]: undetected | total time spent with either of the two objects (APP/PS1 mice): no significant difference | amounts of amyloid beta plaques in hippocampus (amyloid beta plaques): no significant difference
